From publication PMC8499050 (Blood, 2021)

T1: EGR-chloromethylketone active-site inhibited des-(Gla-EGF1) FXa (Homo sapiens, EGR-chloromethylketone in the active site)
T1 chain 1: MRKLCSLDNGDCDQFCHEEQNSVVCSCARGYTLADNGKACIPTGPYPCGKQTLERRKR
T1 chain 2: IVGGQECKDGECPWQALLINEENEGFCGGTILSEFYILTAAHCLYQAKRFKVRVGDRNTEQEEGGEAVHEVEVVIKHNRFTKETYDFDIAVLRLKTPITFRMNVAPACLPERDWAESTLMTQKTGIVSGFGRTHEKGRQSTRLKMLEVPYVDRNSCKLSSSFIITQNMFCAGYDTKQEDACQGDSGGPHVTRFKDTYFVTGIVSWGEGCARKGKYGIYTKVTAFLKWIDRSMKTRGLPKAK


Assays:
[1] = target: T1, EGR-chloromethylketone active-site …; test: crystal structure
[2] = target: EGR-chloromethylketone active-site inhibited des-(Gla-EGF1) FIXa (Homo sapiens, EGR-chloromethylketone in the active site); test: crystal structure

Row | Binder | binding result [1] | binding result [2]
1 | Mim8 anti-FX Fab fragment (Fab, V domains shown) VH: EVQLVQSGAEVKKPGESLRISCKGSGYSFSTSWIVWVRQMPGKGLEWMGMIDPSDSFTSYSPSFQGHVTISADKSISTAYLQWSSLKASDTAMYYCARLHYYNSEEFDVWGQGTLVTVSS VL: EIVLTQSPGTLSLSPGERATLSCRASQSVSSSYLAWYQQKPGQAPRLLIYGQSSRTRGIPDRFSGSGSGTDFTLTISRLEPEDFAVYYCQQFGDSQLFTFGQGTKLEIK | binds | –
2 | Mim8 anti-FIXa Fab fragment (Fab, V domains shown) VH: EVQLVESGGGLVQPGRSLRLSCAASGFTFHDYAMHWVRQVPGKGLEWVSGISWRGDIGGYVKSVKGRFTISRDNAKNSLYLQMNSLRAEDTALYYCVKSYGSGSFYNAFDSWGQGTLVTVSS VL: DIQMTQSPSTLSASVGDRVTITCRASQSISSWLAWYQQKPGKAPKFLIYKASKLERGTPSRFSGSGDGTEFSLTISSLQPDDFATYYCLEYSSYIRTFGQGTKVEIK | – | binds
